In US20180362620A1 (Genentech, published 2018):

Assays:
[1] = target: recombinant FcγRIIIa (V158) (R&D Systems, cat#4325-FC-050) (UniProt P08637); experiment: Biacore binding to recombinant FcγRIIIa (V158), low density
[2] = target: recombinant FcγRIIIa (V158) (R&D Systems, cat#4325-FC-050) (UniProt P08637); experiment: Biacore binding to recombinant FcγRIIIa (V158), high density
[3] = target: T1, recombinant FcγRIIIa (V158) (R&D Systems, cat#4325-FC-050) (UniProt P08637 17-208); experiment: as above
T1 sequence (P08637 17-208 F176V limits assumed): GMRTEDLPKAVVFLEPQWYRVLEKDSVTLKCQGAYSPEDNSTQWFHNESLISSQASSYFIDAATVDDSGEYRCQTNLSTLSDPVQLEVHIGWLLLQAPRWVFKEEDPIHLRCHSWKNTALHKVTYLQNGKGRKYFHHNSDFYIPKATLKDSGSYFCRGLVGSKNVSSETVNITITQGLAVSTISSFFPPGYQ

[4] = target: T1, recombinant FcγRIIIa (V158) (R&D …); experiment: Biacore binding to recombinant FcγRIIIa
[5] = target: T1, recombinant FcγRIIIa (V158) (R&D …); experiment: Biacore binding to recombinant FcγRIIIa (V158), low density
[6] = target: T1, recombinant FcγRIIIa (V158) (R&D …); experiment: Biacore, FcγRIIIa (V158) binding (summary table; equals the 9th table, row 11, column 4)

Chain of recombinant FcγRIIIa (V158) (R&D Systems, cat#4325-FC-050) (UniProt P08637) (P08637 17-208 F176V limits assumed): as above

| Molecule | Kd [1] [nM] | Kd [2] [nM] | Kd [3] [nM] | fold improvement of binding against CHO cell expressed material [4] [fold] | Kd [5] [nM] | Kd [6] [nM] |
| --- | --- | --- | --- | --- | --- | --- |
| Herceptin CHO (antibody) | 82 | 67 |  |  |  |  |
| humanized 13C6 variant h13C6a expressed in FUT8KO CHO cells (antibody, copies: 2 + 2) heavy: EVQLVESGPALVKPTQTLTLTCTFSGFSLSTSGVGVGWIRQPPGKALEWLALIWWDDDKYYNPSLKSRLTISKDTSKNQVVLTMTNMDPVDTATYYCARRDPFGYDNAMGYWGQGTLVTVSSASTKGPSVFPLAPSSKSTSGGTAALGCLVKDYFPEPVTVSWNSGALTSGVHTFPAVLQSSGLYSLSSVVTVPSSSLGTQTYICNVNHKPSNTKVDKKVEPKSCDKTHTCPPCPAPELLGGPSVFLFPPKPKDTLMISRTPEVTCVVVDVSHEDPEVKFNWYVDGVEVHNAKTKPREEQYNSTYRVVSVLTVLHQDWLNGKEYKCKVSNKALPAPIEKTISKAKGQPREPQVYTLPPSREEMTKNQVSLTCLVKGFYPSDIAVEWESNGQPENNYKTTPPVLDSDGSFFLYSKLTVDKSWQQGNVFSCSVMHEALHNHYTQKSLSLSPGK light: DIQMTQSPSSLSASVGDRVTITCKASQNVGTAVAWYQQKPGKAPKLLIYSASNRYTGVPSRFSGSGSGTDFTLTISSLQPEDFATYYCQQYSSYPLTFGQGTKVEIKRTVAAPSVFIFPPSDEQLKSGTASVVCLLNNFYPREAKVQWKVDNALQSGNSQESVTEQDSKDSTYSLSSTLTLSKADYEKHKVYACEVTHQGLSSPVTKSFNRGEC |  |  | 27 | ~3 | 38 |  |
| humanized 13C6 variant h13C6a expressed in CHO cells (antibody, copies: 2 + 2) heavy: EVQLVESGPALVKPTQTLTLTCTFSGFSLSTSGVGVGWIRQPPGKALEWLALIWWDDDKYYNPSLKSRLTISKDTSKNQVVLTMTNMDPVDTATYYCARRDPFGYDNAMGYWGQGTLVTVSSASTKGPSVFPLAPSSKSTSGGTAALGCLVKDYFPEPVTVSWNSGALTSGVHTFPAVLQSSGLYSLSSVVTVPSSSLGTQTYICNVNHKPSNTKVDKKVEPKSCDKTHTCPPCPAPELLGGPSVFLFPPKPKDTLMISRTPEVTCVVVDVSHEDPEVKFNWYVDGVEVHNAKTKPREEQYNSTYRVVSVLTVLHQDWLNGKEYKCKVSNKALPAPIEKTISKAKGQPREPQVYTLPPSREEMTKNQVSLTCLVKGFYPSDIAVEWESNGQPENNYKTTPPVLDSDGSFFLYSKLTVDKSWQQGNVFSCSVMHEALHNHYTQKSLSLSPGK light: DIQMTQSPSSLSASVGDRVTITCKASQNVGTAVAWYQQKPGKAPKLLIYSASNRYTGVPSRFSGSGSGTDFTLTISSLQPEDFATYYCQQYSSYPLTFGQGTKVEIKRTVAAPSVFIFPPSDEQLKSGTASVVCLLNNFYPREAKVQWKVDNALQSGNSQESVTEQDSKDSTYSLSSTLTLSKADYEKHKVYACEVTHQGLSSPVTKSFNRGEC |  |  | 113 |  | 117 |  |
| humanized 13C6 variant h13C6i expressed in CHO cells (antibody, copies: 2 + 2) heavy: EVQLVESGPALVKPTQTLTLTCTFSGFSLSTSGVGVGWIRQPPGKALEWLALIWWDDDKYYNPSLKSRLTISKDTSKNQVVLTMTNMDPVDTATYYCARRDPFGYDNAMGYWGQGTLVTVSSASTKGPSVFPLAPSSKSTSGGTAALGCLVKDYFPEPVTVSWNSGALTSGVHTFPAVLQSSGLYSLSSVVTVPSSSLGTQTYICNVNHKPSNTKVDKKVEPKSCDKTHTCPPCPAPELLGGPSVFLFPPKPKDTLMISRTPEVTCVVVDVSHEDPEVKFNWYVDGVEVHNAKTKPREEQYNSTYRVVSVLTVLHQDWLNGKEYKCKVSNKALPAPIEKTISKAKGQPREPQVYTLPPSREEMTKNQVSLTCLVKGFYPSDIAVEWESNGQPENNYKTTPPVLDSDGSFFLYSKLTVDKSWQQGNVFSCSVMHEALHNHYTQKSLSLSPGK light: DIQMTQSPSSLSASVGDRVTITCKASQNVGTAVAWYQQKPGKSPKLLIYSASNRYTGVPSRFSGSGSGTDFTLTISSLQPEDFATYFCQQYSSYPLTFGQGTKVEIKRTVAAPSVFIFPPSDEQLKSGTASVVCLLNNFYPREAKVQWKVDNALQSGNSQESVTEQDSKDSTYSLSSTLTLSKADYEKHKVYACEVTHQGLSSPVTKSFNRGEC |  |  | 111 |  | 122 |  |
| humanized 13C6 variant h13C6i expressed in FUT8KO CHO cells (antibody, copies: 2 + 2) heavy: EVQLVESGPALVKPTQTLTLTCTFSGFSLSTSGVGVGWIRQPPGKALEWLALIWWDDDKYYNPSLKSRLTISKDTSKNQVVLTMTNMDPVDTATYYCARRDPFGYDNAMGYWGQGTLVTVSSASTKGPSVFPLAPSSKSTSGGTAALGCLVKDYFPEPVTVSWNSGALTSGVHTFPAVLQSSGLYSLSSVVTVPSSSLGTQTYICNVNHKPSNTKVDKKVEPKSCDKTHTCPPCPAPELLGGPSVFLFPPKPKDTLMISRTPEVTCVVVDVSHEDPEVKFNWYVDGVEVHNAKTKPREEQYNSTYRVVSVLTVLHQDWLNGKEYKCKVSNKALPAPIEKTISKAKGQPREPQVYTLPPSREEMTKNQVSLTCLVKGFYPSDIAVEWESNGQPENNYKTTPPVLDSDGSFFLYSKLTVDKSWQQGNVFSCSVMHEALHNHYTQKSLSLSPGK light: DIQMTQSPSSLSASVGDRVTITCKASQNVGTAVAWYQQKPGKSPKLLIYSASNRYTGVPSRFSGSGSGTDFTLTISSLQPEDFATYFCQQYSSYPLTFGQGTKVEIKRTVAAPSVFIFPPSDEQLKSGTASVVCLLNNFYPREAKVQWKVDNALQSGNSQESVTEQDSKDSTYSLSSTLTLSKADYEKHKVYACEVTHQGLSSPVTKSFNRGEC |  |  | 24 | ~3 | 36 | 24 |
